From paper PMC7064778
Read-outs that look alike come from different tables or passages of the source.

How the values were obtained:
[1] = target: PyoS5_(1–315) (P. aeruginosa) (UniProt Q9I4Y4); experiment: SPR
[2] = target: PyoS5_(1–315) (P. aeruginosa) (UniProt Q9I4Y4); experiment: SPR; remark: listed apart in the source

TonB1_(109–342) (domain or fragment)
Kd [1]: 230 nM | Kd [2]: 241 nM
